{"source": "paper PMC9410543", "about": "“Nonlytic cellular release of hepatitis A virus requires dual capsid recruitment of the ESCRT-associated Bro1 domain proteins HD-PTP and ALIX” (PLoS Pathogens, 2022)", "target": "T1, 6XHis-tagged ALIX Bro1 protein (residues 1–392) (UniProt Q8WUM4 1-392)", "T1 construct": "Bro1 domain of ALIX, residues 1-392; also called recombinant ALIX Bro1; recombinant Bro1; source: E. coli, recombinant", "T1 sequence (looked up)": "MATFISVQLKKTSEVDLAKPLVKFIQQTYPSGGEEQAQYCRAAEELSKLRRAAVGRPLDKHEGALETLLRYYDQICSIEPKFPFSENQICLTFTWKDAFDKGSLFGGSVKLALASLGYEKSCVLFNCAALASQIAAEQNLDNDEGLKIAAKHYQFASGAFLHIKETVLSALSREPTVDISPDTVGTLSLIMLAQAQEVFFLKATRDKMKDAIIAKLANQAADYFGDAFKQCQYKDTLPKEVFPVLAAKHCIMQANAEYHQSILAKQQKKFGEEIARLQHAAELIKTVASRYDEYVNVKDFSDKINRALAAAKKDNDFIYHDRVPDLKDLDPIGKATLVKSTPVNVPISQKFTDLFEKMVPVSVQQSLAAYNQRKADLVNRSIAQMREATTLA", "test": "pull-down", "settings": "both partners purified"}
{"binder": "KKKEEEDDDMKELENWAGSM (peptide, UniProt Q9H444 205-224, looked up, also called CHMP4 peptide; source: synthetic peptide)", "note": "[peptide representing the C-terminal 20 residues of CHMP4B]", "values": [{"measurement": "binding result", "result": "binds"}]}
